We go through 66 substances from the supplement of paper PMC11502859.

In the series the test system is HEK293T. Nature of the series: median enrichment of reporter reads in eGFP-reduced (low/intermediate) vs eGFP-high sorted cells (eGFP-extension fusion abundance) (ratio); higher = stronger loss of eGFP-fusion protein abundance (more destabilising extension).
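Further: lentiviral eGFP-IRES-mCherry reporter pool sorted by FACS 96 h post-transduction, gated on mCherry-high cells, Illumina read counts normalized per million, median across four biological replicates.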

Regarding “WAAAARPSGTPASPGGALGQVPSGRTTPGPQGPRPAATLVVAASRSAFGRPLGVAGAARRVQVEVPVPGPQRA [B3GALT6]”, the median enrichment was 8.24.
The same measure for “SVGSPSKPRPLKPPLAAPRSSHYLCPEGGKSFPAHPPR [BCL7C]”: 1.39; for KQWQQLGLETSRWCWDHLSLLLLASHSL [PACRG]: 7.92; for YLLKYRNLNNVKLD [TJP1]: 4.45.
“YRGPCRHHPPPSPCPQPVCPVPCPPQAWWWQWRRLRRLKRLTGRGAFCLAHCPDDPPAPSRLQQQSPRRTGWTEEKEVDCCTH [SOX10]”: the median enrichment turned out to be 3.52.
The same measure for LLAG [QKI]: 4.55; for KKKK [Lys04]: 0.575; for SSSSSSS [Ser07]: 0.279.
For “SETAGFLLLFFLVVQLSPPPLLSCLLIWSFSLFSACHVFSGTYLHPPQHQFP [CNTNAP5]” the value was 11.4.
The same measure for “RGAEGPMGEERRALLGKVGFLDPRDKLFRCHNVEESTWGTTVLVQVGLGKCTSLPLTPRQNPHPSLWILGKVPVPGEYPGPQT [IGHMBP2]”: 5.61.
“RALLAPAFHALPIPPPPPPPPATEGRPEPPSLPSPLGGRGGHWKGGTPPPQQLRRGFWN [TOMM40]”: the median enrichment came out at 0.777.
Regarding LPPLSPECNKHQIPCVK [POLR2I], the median enrichment was 2.23.
For DDDDDDD [Asp07] the value was 0.338.
The same measure for QFKELKIHMHEP [WDR41]: 1.3.
Take “RFQIWRRPGKPTEVQHVICLKVVLLHHIDDPTTSNMGHSIHFNISIFLYHFCYLSV [ARPC5]”: the median enrichment amounted to 6.81.
For KLQC [OR4C6] the value was 0.547; for RSSKPTKHQKTHSQTSEHKLHG [PLCB4], 0.191; for LFRCYSSLLKDDENAECLFKCF [GABRA4], 13.1.
For QELSERCSIPFPHGKAK [ASXL3] the value was 0.227; for WCLHHLCSCSLKGSPYSKPPKLGDPSSP [MPIG6B], 6.53.
The same measure for “WAPGTAPHCQLPLLGGPGRRVPPSPCQGPGDPLPGCLRLLLRRGNAKKEKEKPRARPLPPAVHCAASSVPGLTVPLSSAPARQ [NRXN2]”: 6.68; for “LAAGVAMMGWSSLGQGVLGPTPTPPPRHHFPSRFLRLDLGSPLPVMHSCPGPTSPSLTSLELWPPRKGPIQPRLFTEVVLFMK [SCN1B]”: 4.89.
Consider “YKRPWSGPTLRPSISQALSAVIPRTQWAPCTPVSGAVRLGYIVNSASTERLALRASSESSSSGTPPKPTPPGTPLSGIPAKRR [PRRT1]”, for which the median enrichment worked out at 1.15.
For CCCCCCC [Cys07] the value was 9.39.
The same measure for QTGHPTHLHAKILPASSLRVPW [UBL4B]: 4.81.
The same measure for LLLLL [Leu05]: 4.74; for YGLAKAPIEALCQ [PITHD1]: 1.66; for “SDDILSPCVAFYLRFPRPAMFSSSPFSLYKNSFSRKTLISIVYMSLWLRH [ACTR3C]”: 17.1.
As to RYC [NCK1], the median enrichment worked out at 0.896.
The same measure for LFVKLCLIM [GPR112]: 13.7.
Turning to WQLPGDSRLSDSLQEKTVRPPFGPH [SYCE2], the median enrichment is 0.972.
For “YLTLHLSSGCQGRRRSQQAPLFCSLSPEAEHMFSEKLLLRTF [RAF1]” the value was 6.79; for YQLFAISCTQTCVIYAPGNQ [MAST2], 7.02.
Turning to LPDFGAAEAT [ELP6], the median enrichment came out at 0.429.
For “GGQVAEGSGCRLLYPLCLKHPPHRALVFTRFVLDSLNGNRIPWLRAKTTTYQCPCPFQLTLSSLRSSLSLWKGHPSQGRNAWS [SLC13A5]” the value was 8.48; for SWRRPMCIFF [FRAS1], 9.68.
The same measure for “RRRRRRGRAAGGTAQATQGRPLRPGGQGGRPASGDRLPPGLWQDVPSEGYFEEPPGPGDREAPVSSMNALPRTQARASGVHSE [MSANTD1]”: 0.682; for “LPGLRRTLWTECLRTSYSLMLNPFHFLSFHSWVDSDHKDSWGFPGRTLHLMEHLNCRFCFPPLPHVIIKL [LCE2B]”: 6.36; for “LFIRSHGPITITLFSAFLLSSFLLSSPLLSSPLLPSPLCFFFFFFSFLWRSFALVAQAAVQWLNLGSLQPLPPRFK [GFRAL]”: 7.15.
As for “TTMERWAVAMVDGLPGWAFELALGTTRLSLSSHGTQKCAAMLPRVLSPHLSQPSWRPGLSLQPLGPALIAGGQALDLEGLAHP [ADGRG1]”, the median enrichment was 5.12.
The same measure for RCTKDLLF [GNA13]: 1.38; for KKKKK [Lys05]: 0.46.
The same measure for “WEDRPAASWSREASVIAHTQFRFPPLYRQEVNLPGAEHPPKESPLNNTPPPRQECPNPNDPSFPNE [EDN3]”: 0.582; for “NGPPLPPSPDAEMVMGSWRVGSEMKGTPQWAAGPIFPKPCHYLCEGGQVAEGSGCRLLYPLCLKHPPHRALVFTRFVLDSLNG [SLC13A5]”: 4.2; for SYKPA [WDR97]: 0.947.
The same measure for “GAMLPSSSSPPSTGWDRRQVPAHACLRLFPPLGQALGWKLGS [ADCYAP1R1]”: 9.03; for WWWWW [Trp05]: 7.38; for “SVDTPAPVGMDGPDFMASGTWAQRGACGRGWENKVQGRDQTAASLYMPS [ITIH3]”: 32.4.
In the case of “SNIWLRCHWLRPTRSSFGWCRDHMHIIPGINTELFVNIAAPVF [LRRC6]”, the median enrichment amounted to 12.4.
The same measure for “LTFQDEWFILSNLLLTEQSSEPFNFKLHQLCAEPWCKVLSHSFFLSVEFGAIVSGT [ATAD2B]”: 6.97.
For QTVKEGVFVWTR [DSC1] the value was 2.42; for PPPPPPP [Pro07], 1.37.
For SNRIEQNRIE [PCSK5] the value was 0.616; for YLCISRAHTYIVAYSQHGSRPALLI [RANBP9], 2.61; for “SPWSLVPGARASPPFHQPHRPLRGWSPLPGHGGRIPLGWSRLEKLLCQVCSLSAIVTSLPRGGDHITKRNSPFSKG [TCF21]”, 3.11.
Regarding YPPAQPRTDMNIGWTEVASV [PIP4K2A], the median enrichment was determined as 5.83.
As to EEEEEEE [Glu07], the median enrichment came out at 1.23.
On to “YASRRRRRRGRAAGGTAQATQGRPLRPGGQGGRPASGDRLPPGLWQDVPSEGYFEEPPGPGDREAPVSSMNALPRTQARASGV [MSANTD1]”, for which the median enrichment stood at 1.01.
With CAPWWERL [HTT], the median enrichment turned out to be 1.22.
The same measure for “CIYTAKKNYECMEFFKKKYNALLQRTLGKKPYVKVMTVK [ZNF140]”: 22.2; for “HFWGVTDFVHGFKVYFYGLVIAEFLFWGEGKGASPLLLALRPRRLLCAANCIYCDALVRAPLPTSPSQLWPQPLSLCCVEWTP [TSPYL2]”: 8.4.
As to YVD [GLUL], the median enrichment is 0.387.
The same measure for “QSPSVLPLSPLSPWPVVVPQPLPPSTSSVSPSPRLINLLIDCDSK [ERGIC3]”: 9.24; for YRHQVW [SMAD3]: 1.22.
For “LVRGRGGAGTYLPESWRQNEALSIPGILLLLRADARPRASRDGVGEVLPTPLSSFPSSTKFPPALTE [SELENOM]” the value was 4.2; for “YFFLELKHPRMPLHVFHSPHLQTSLLFLTRPESKLPSLGNSGEGVSCTTYHTPSHPVSDFGMDSGKLGPSLNRVMYLNVCYFQ [HSPA1L]”, 10.9.
